Experimental findings from IntAct's records for PubMed 29892012 are described below.

B1: Zyxin (Homo sapiens), Q15942 (parent)
chain: MAAPRPSPAISVSVSAPAFYAPQKKFGPVVAPKPKVNPFRPGDSEPPPAPGAQRAQMGRVGEIPPPPPEDFPLPPPPLAGDGDDAEGALGGAFPPPPPPIEESFPPAPLEEEIFPSPPPPPEEEGGPEAPIPPPPQPREKVSSIDLEIDSLSSLLDDMTKNDPFKARVSSGYVPPPVATPFSSKSSTKPAAGGTAPLPPWKSPSSSQPLPQVPAPAQSQTQFHVQPQPQPKPQVQLHVQSQTQPVSLANTQPRGPPASSPAPAPKFSPVTPKFTPVASKFSPGAPGGSGSQPNQKLGHPEALSAGTGSPQPPSFTYAQQREKPRVQEKQHPVPPPAQNQNQVRSPGAPGPLTLKEVEELEQLTQQLMQDMEHPQRQNVAVNELCGRCHQPLARAQPAVRALGQLFHIACFTCHQCAQQLQGQQFYSLEGAPYCEGCYTDTLEKCNTCGEPITDRMLRATGKAYHPHCFTCVVCARPLEGTSFIVDQANRPHCVPDYHKQYAPRCSVCSEPIMPEPGRDETVRVVALDKNFHMKCYKCEDCGKPLSIEADDNGCFPLDGHVLCRKCHTARAQT
B2: Serine hydroxymethyltransferase, mitochondrial (Homo sapiens), P34897 (parent)
chain: MLYFSLFWAARPLQRCGQLVRMAIRAQHSNAAQTQTGEANRGWTGQESLSDSDPEMWELLQREKDRQCRGLELIASENFCSRAALEALGSCLNNKYSEGYPGKRYYGGAEVVDEIELLCQRRALEAFDLDPAQWGVNVQPYSGSPANLAVYTALLQPHDRIMGLDLPDGGHLTHGYMSDVKRISATSIFFESMPYKLNPKTGLIDYNQLALTARLFRPRLIIAGTSAYARLIDYARMREVCDEVKAHLLADMAHISGLVAAKVIPSPFKHADIVTTTTHKTLRGARSGLIFYRKGVKAVDPKTGREIPYTFEDRINFAVFPSLQGGPHNHAIAAVAVALKQACTPMFREYSLQVLKNARAMADALLERGYSLVSGGTDNHLVLVDLRPKGLDGARAERVLELVSITANKNTCPGDRSAITPGGLRLGAPALTSRQFREDDFRRVVDFIDEGVNIGLEVKSKTAKLQDFKSFLLKDSETSQRLANLRQRVEQFARAFPMPGFDEH
partner: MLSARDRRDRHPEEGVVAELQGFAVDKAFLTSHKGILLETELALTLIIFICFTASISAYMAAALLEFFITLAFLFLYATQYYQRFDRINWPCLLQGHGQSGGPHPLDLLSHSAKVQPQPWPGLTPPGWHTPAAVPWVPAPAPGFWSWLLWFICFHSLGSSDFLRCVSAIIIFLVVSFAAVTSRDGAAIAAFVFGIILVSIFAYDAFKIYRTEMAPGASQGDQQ
B3: E3 ubiquitin-protein ligase LNX (Homo sapiens), Q8TBB1 (parent)
chain: MNQPESANDPEPLCAVCGQAHSLEENHFYSYPEEVDDDLICHICLQALLDPLDTPCGHTYCTLCLTNFLVEKDFCPMDRKPLVLQHCKKSSILVNKLLNKLLVTCPFREHCTQVLQRCDLEHHFQTSCKGASHYGLTKDRKRRSQDGCPDGCASLTATAPSPEVSAAATISLMTDEPGLDNPAYVSSAEDGQPAISPVDSGRSNRTRARPFERSTIRSRSFKKINRALSVLRRTKSGSAVANHADQGRENSENTTAPEVFPRLYHLIPDGEITSIKINRVDPSESLSIRLVGGSETPLVHIIIQHIYRDGVIARDGRLLPGDIILKVNGMDISNVPHNYAVRLLRQPCQVLWLTVMREQKFRSRNNGQAPDAYRPRDDSFHVILNKSSPEEQLGIKLVRKVDEPGVFIFNVLDGGVAYRHGQLEENDRVLAINGHDLRYGSPESAAHLIQASERRVHLVVSRQVRQRSPDIFQEAGWNSNGSWSPGPGERSNTPKPLHPTITCHEKVVNIQKDPGESLGMTVAGGASHREWDLPIYVISVEPGGVISRDGRIKTGDILLNVDGVELTEVSRSEAVALLKRTSSSIVLKALEVKEYEPQEDCSSPAALDSNHNMAPPSDWSPSWVMWLELPRCLYNCKDIVLRRNTAGSLGFCIVGGYEEYNGNKPFFIKSIVEGTPAYNDGRIRCGDILLAVNGRSTSGMIHACLARLLKELKGRITLTIVSWPGTFL
partner: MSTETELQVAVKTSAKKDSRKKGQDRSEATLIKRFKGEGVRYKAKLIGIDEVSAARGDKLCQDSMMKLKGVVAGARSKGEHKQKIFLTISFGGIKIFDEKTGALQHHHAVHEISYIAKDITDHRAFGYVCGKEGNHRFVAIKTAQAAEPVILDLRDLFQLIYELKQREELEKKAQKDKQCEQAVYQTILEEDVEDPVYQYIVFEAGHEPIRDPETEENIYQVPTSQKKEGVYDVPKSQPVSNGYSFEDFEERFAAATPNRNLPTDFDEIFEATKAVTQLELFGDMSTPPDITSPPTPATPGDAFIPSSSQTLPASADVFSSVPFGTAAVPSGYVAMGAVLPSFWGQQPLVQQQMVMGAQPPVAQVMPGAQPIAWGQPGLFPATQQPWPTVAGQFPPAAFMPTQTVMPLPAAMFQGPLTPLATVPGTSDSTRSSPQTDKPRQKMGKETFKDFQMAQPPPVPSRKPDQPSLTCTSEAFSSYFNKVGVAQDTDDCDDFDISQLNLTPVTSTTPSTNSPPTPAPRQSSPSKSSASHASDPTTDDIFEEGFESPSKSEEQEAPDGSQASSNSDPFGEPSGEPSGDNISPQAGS
B4: Coiled-coil alpha-helical rod protein 1 (Homo sapiens), Q8TD31 (parent)
chain: MFPPSGSTGLIPPSHFQARPLSTLPRMAPTWLSDIPLVQPPGHQDVSERRLDTQRPQVTMWERDVSSDRQEPGRRGRSWGLEGSQALSQQAEVIVRQLQELRRLEEEVRLLRETSLQQKMRLEAQAMELEALARAEKAGRAEAEGLRAALAGAEVVRKNLEEGSQRELEEVQRLHQEQLSSLTQAHEEALSSLTSKAEGLEKSLSSLETRRAGEAKELAEAQREAELLRKQLSKTQEDLEAQVTLVENLRKYVGEQVPSEVHSQTWELERQKLLETMQHLQEDRDSLHATAELLQVRVQSLTHILALQEEELTRKVQPSDSLEPEFTRKCQSLLNRWREKVFALMVQLKAQELEHSDSVKQLKGQVASLQEKVTSQSQEQAILQRSLQDKAAEVEVERMGAKGLQLELSRAQEARRRWQQQTASAEEQLRLVVNAVSSSQIWLETTMAKVEGAAAQLPSLNNRLSYAVRKVHTIRGLIARKLALAQLRQESCPLPPPVTDVSLELQQLREERNRLDAELQLSARLIQQEVGRAREQGEAERQQLSKVAQQLEQELQQTQESLASLGLQLEVARQGQQESTEEAASLRQELTQQQELYGQALQEKVAEVETRLREQLSDTERRLNEARREHAKAVVSLRQIQRRAAQEKERSQELRRLQEEARKEEGQRLARRLQELERDKNLMLATLQQEGLLSRYKQQRLLTVLPSLLDKKKSVVSSPRPPECSASAPVAAAVPTRESIKGSLSVLLDDLQDLSEAISKEEAVCQGDNLDRCSSSNPQMSS
partner: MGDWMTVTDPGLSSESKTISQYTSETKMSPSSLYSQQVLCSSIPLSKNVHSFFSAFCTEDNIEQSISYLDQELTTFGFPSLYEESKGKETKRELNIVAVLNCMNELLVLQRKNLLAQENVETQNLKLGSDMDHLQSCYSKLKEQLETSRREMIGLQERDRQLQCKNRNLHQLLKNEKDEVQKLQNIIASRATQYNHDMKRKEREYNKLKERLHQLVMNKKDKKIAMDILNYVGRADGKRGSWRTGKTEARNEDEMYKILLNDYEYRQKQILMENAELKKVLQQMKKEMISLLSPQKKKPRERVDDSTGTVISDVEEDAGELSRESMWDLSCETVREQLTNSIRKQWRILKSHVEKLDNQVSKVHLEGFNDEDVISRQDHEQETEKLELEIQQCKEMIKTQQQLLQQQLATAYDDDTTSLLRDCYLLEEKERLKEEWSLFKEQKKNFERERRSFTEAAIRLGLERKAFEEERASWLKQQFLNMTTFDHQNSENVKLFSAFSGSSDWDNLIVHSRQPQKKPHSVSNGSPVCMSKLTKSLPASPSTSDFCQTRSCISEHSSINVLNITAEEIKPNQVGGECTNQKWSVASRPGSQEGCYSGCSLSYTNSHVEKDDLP
B5: Coiled-coil alpha-helical rod protein 1 (Homo sapiens), Q8TD31 (parent)
chain: B4 chain
partner: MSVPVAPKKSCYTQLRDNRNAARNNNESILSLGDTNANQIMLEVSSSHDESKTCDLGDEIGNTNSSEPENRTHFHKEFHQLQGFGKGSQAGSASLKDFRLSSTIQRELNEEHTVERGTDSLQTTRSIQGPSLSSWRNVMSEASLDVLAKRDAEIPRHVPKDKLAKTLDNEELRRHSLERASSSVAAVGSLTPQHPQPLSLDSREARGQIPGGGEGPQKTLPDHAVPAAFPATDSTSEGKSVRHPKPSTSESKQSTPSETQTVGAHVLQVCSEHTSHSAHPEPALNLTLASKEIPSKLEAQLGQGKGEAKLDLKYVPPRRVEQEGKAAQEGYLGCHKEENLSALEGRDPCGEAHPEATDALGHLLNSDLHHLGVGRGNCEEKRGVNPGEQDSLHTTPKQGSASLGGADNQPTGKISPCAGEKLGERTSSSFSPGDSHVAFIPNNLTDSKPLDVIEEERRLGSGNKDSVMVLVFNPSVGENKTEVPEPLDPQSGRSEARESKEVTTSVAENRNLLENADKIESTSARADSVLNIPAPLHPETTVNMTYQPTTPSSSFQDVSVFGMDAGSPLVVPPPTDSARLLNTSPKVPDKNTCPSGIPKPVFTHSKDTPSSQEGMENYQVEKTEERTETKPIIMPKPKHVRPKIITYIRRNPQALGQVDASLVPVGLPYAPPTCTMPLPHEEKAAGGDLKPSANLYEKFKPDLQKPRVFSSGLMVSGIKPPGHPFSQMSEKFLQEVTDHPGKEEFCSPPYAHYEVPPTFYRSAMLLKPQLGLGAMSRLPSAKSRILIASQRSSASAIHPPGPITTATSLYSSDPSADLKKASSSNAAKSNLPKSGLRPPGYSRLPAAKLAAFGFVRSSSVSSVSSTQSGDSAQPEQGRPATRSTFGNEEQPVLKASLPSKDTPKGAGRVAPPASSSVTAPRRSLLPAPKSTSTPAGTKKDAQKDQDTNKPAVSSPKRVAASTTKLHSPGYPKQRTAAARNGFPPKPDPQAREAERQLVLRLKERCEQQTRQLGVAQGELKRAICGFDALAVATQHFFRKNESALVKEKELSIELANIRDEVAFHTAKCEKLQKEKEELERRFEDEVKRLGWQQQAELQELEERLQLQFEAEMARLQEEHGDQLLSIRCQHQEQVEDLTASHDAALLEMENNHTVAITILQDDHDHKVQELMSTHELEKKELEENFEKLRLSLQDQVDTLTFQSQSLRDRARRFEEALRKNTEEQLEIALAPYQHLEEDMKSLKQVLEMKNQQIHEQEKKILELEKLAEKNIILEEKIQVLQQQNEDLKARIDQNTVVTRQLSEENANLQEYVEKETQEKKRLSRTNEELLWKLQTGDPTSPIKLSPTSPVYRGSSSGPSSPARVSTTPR

One test covers variants of B1. The note with it: with pf21a_human PHF21A.
Take R167G: the “effect of a mutation on the interaction” value is recorded as “with no effect”.

In a further test the parent is B2. The note with it: with cklf5_human CMTM5, Q96DZ9.
On to V112M, for which the “effect of a mutation on the interaction” value is “disrupting interaction strength”.

Another test covers variants of B3. The note with it: with dab1_human DAB1, O75553.
On to E295K, for which the “effect of a mutation on the interaction” value was “disrupting interaction strength”.

The variants in the next test derive from B4. The conditions noted are these: with adip_human SSX2IP.
W337R: the “effect of a mutation on the interaction” value is on record as “disrupting interaction strength”.

Another test covers variants of B5. The conditions noted are these: with mtus2_human MTUS2, Q5JR59.
For W337R, the “effect of a mutation on the interaction” value is on record as “disrupting interaction strength”.
